Assay results reported in paper PMC10144430 (Viruses, 2023).

How the values were obtained:
[1] = biological target: T1, cys2_(306t), soluble disulfide-bonded gD mutant (K190C-A277C) truncated at position 306 ( (herpes simplex virus)); …, UniProt Q69467 26-331, K190C | A277C, engineered disulfide bond Cys190-Cys277 (reduced where TCEP was added)); assay: SPR; Biacore 3000, room temperature, HBS-EP; gD captured via Mab 1D3 on a CM5 chip; soluble nectin-1 injected 300 s at 5 uL/min (also pre-mixed with 1 mM TCEP, binding unaffected); details: both partners purified
T1 construct: also called gD cys2; cy2; source: 293T cells, transfected, purified from supernatant (nickel column); not shown: His6, C-terminal, kept

[2] = biological target: T2, gDL268N_(306t), soluble gD L268N truncated at residue 306 ( (herpes simplex virus; …, UniProt Q69467 26-331, L268N); assay: as above; details: both partners purified
T2 construct: source: 293T cells, transfected, purified from supernatant (Ni-NTA resin)

B1: soluble nectin-1 (receptor)
chain: QVVQVNDSMYGFIGTDVVLHCSFANPLPSVKITQVTWQKSTNGSKQNVAIYNPSMGVSVLAPYRERVEFLRPSFTDGTIRLSRLELEDEGVYICEFATFPTGNRESQLNLTVMAKPTNWIEGTQAVLRAKKGQDDKVLVATCTSANGKPPSVVSWETRLKGEAEYQEIRNPNGTVTVISRYRLVPSREAHQQSLACIVNYHMDRFKESLTLNVQYEPEVTIEGFDGNWYLQRMDVKLTCKADANPPATEYHWTTLNGSLPKGVEAQNRTLFFKGPINYSLAGTYICEATNPIGTRSGQVEVNITEFPYTPSPPEHGRRAGPVPTA
notes: source: baculovirus-infected insect cells (Sf9), purified
- nectin-1 binding, % of wt [1]: ~40 % of wt
- nectin-1 binding, % of wt [2]: ~50 % of wt
